Results published in the supplement of paper PMC11865577.

How the values were obtained:
Test in all cases: pull-down binding Z-score (relative to library population); higher = stronger binding
[1] = test system: TO-N3 (biotin conjugate); settings: RNA library: Library-2
Summary of the method: (§1)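 Streptavidin beads bearing 100 pmol of a biotin-conjugated small molecule were incubated for 60 min at 25 °C with 1 μg of heat-folded, Cy5- or Cy3-end-labelled RNA library in phosphate/NaCl/KCl buffer. Hot SDS eluted the RNA that stayed bound after three washes, and this RNA was hybridised for 20 h at 55.5 °C to a DNA barcode microarray. Binding was expressed as a Z-score against the library mean and standard deviation, after subtraction of a beads-only signal and trimmed averaging of barcoded replicate probes.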

[2] = test system: TO-3-N3 (biotin conjugate); settings: RNA library: Library-2
Summary of the method: as §1

[3] = test system: TO-3-N3-2 (biotin conjugate); settings: RNA library: Library-2
Summary of the method: as §1

[4] = test system: TO-N3-2 (biotin conjugate); settings: RNA library: Library-2
Summary of the method: as §1

[5] = test system: G-clamp-N3 (biotin conjugate); settings: RNA library: Library-1 (pre-miRNA loops + repeats)
Summary of the method: as §1

Sequence	pull-down binding Z-score [1]	pull-down binding Z-score [2]	pull-down binding Z-score [3]	pull-down binding Z-score [4]	pull-down binding Z-score [5]
UGCUAUUACUUGUAUUUAUUUGUAAUGCA [hsa-mir-548ab]	-1.33	-0.524	-0.88	-1.59	-0.547
UGCUAUUAGAAAGUAAUGGCA [hsa-mir-548ba]	0.776	0.757	0.507	-0.00903	0.465
UGCUCAGUGGAGUUAUUUUGAGCA [hsa-mir-4495]	-1.42	-1.01	-0.621	-1.2	1.2
UGCUCCUUGAACAGGAGGAGCA [hsa-mir-4708]	-0.683	-0.48	-0.405	-0.535	1.09
UGCUCUGAUGAAGACCCAUGUGGC [hsa-mir-621]	0.589	-0.162	0.285	1.51	-0.6
UGCUCUGGUGACUGAGGACCGCCAGGCA [hsa-mir-4763]	-0.091	-0.245	-0.197	0.367	-0.385
UGCUGAUGUCAUCAGUCAUAACUUCUGCG [hsa-mir-6854]	-0.0155	-0.119	0.131	0.366	-0.983
UGCUGGAGAAGUGUUU [hsa-mir-557]	0.49	0.516	0.0975	0.156	-0.431
UGCUGGUGCUAGAGAGGAAAGCA [hsa-mir-4748]	0.985	0.426	0.315	2.22	1
UGCUGUGAGCUAGCCAGCAG [hsa-mir-5693]	0.614	-0.0213	0.0593	0.91	-0.44
UGCUGUGCUGUGCUGAGCAGGGCUGAGCUG [hsa-mir-4539]	1.07	0.29	0.178	1.46	0.347
UGCUGUUGCUGUGAAAGCUGA [hsa-mir-6823]	0.559	0.045	0.304	0.705	-0.619
UGCUGUUGGAGACUCGAUUGUUGGUGACAGCGAAAGAACGAUAACAAA [hsa-mir-3655]	0.231	-0.405	-0.149	1.04	-1.76
UGCUUCAGUUUCACUCCAAGCA [hsa-mir-4771-2_4771-1]	-0.204	-0.0351	-0.126	-0.141	-0.932
UGCUUCCACAUAGCAGCA [hsa-mir-4752]	-0.62	-0.423	-0.24	-0.597	-0.248
UGCUUGACCUGAAUGCUACAAGGCA [hsa-mir-103b-2]	-0.303	-0.324	-0.122	-0.0962	-1.12

Sequence	pull-down binding Z-score [1]	pull-down binding Z-score [2]	pull-down binding Z-score [3]	pull-down binding Z-score [4]	pull-down binding Z-score [5]
UGCUUGAUCCAUAUGCAACAAGGCA [hsa-mir-103b-1]	0.57	0.453	0.244	0.715	-0.604
UGCUUUACUUUUAAUGGCA [hsa-mir-548k]	-1.15	-0.819	-0.358	-1.34	-0.352
UGCUUUGUUAGAAACAAAAAGCA [hsa-mir-4679-1]	0.447	0.632	0.248	-0.462	0.865
UGCUUUUUGUUUCUAACAAAGCA [hsa-mir-4679-2]	0.0252	0.272	-0.407	-1.25	-0.591
UGGAAGCUCCAGGUGCCAACCACCUGCCUCUA [hsa-mir-6731]	0.231	0.00854	-0.134	0.456	-0.826
UGGAAGGAAUGGGAUCUACUUCCA [hsa-mir-3612]	0.285	0.389	0.46	-0.214	0.981
UGGACAGAAAUUUCCUUUUGAGGAAAUCUUUCCC [hsa-mir-4308]	-0.671	-0.486	-0.309	-0.367	-0.543
UGGACCUCAGGGAAGAGGCUG [hsa-mir-4673]	-0.619	-0.608	-0.191	-0.855	0.343
UGGACUGUGUACCAAUUUCCA [hsa-mir-194-1]	-0.21	-0.134	-0.379	-0.471	0.055
UGGAGCCAGGGGGCCCAGGUCUACAGCUUCUCCCCGCUCCC [hsa-mir-6752]	0.328	-0.138	-0.105	1.2	-0.438
UGGAGCUAGACCACAUGGGUUCA [hsa-mir-5100]	-0.131	-0.111	-0.115	0.244	-0.932
UGGAGGAGUCUGGUGGCCUGUUCUCUU [hsa-mir-6754]	0.123	-0.348	-0.0949	0.707	-0.0952
UGGAGGCUGACCUCUUACUUUCGGUCGGUCUUCUU [hsa-mir-4258]	-0.486	-0.176	-0.43	-0.435	-1.13
UGGAGGCUGCAGUGAGCCGAGAUCGAGCCACUGUACUCCA [hsa-mir-1273e]	1.14	0.259	-0.0556	1.09	0.0244
UGGAGGGGGUUUGUUUGCUUAUUCCCCUCU [hsa-mir-6737]	0.918	0.936	0.705	0.633	0.456
UGGAGGUGAUGGAUGUUUUCCUCCG [hsa-mir-671]	-0.717	-0.607	-0.398	-0.359	-0.238
